From PMC12344411, “Cytosolic- and membrane-localized oxidized indole-3-acetic acid formation regulates developmental auxin transients” (Plant physiology, 2025)
Values belong to the molecule of their own block, whether it stands above or below them.

Key:
[1] = target: TIR1 (Arabidopsis thaliana) (UniProt Q570C0); assay: BLI; conditions: cited from earlier work
[2] = target: TIR1 (Arabidopsis thaliana) (UniProt Q570C0); assay: BLI; conditions: cited from earlier work; remark: listed apart in the source
[3] = target: T1, TIR1 (Arabidopsis thaliana, UniProt Q570C0); assay: synthetic yeast system, TIR1-dependent degradation of YFP-IAA7 and YFP-IAA17 by flow cytometry; type: cell-based
T1 construct: with IAA7
T1 sequence (Q570C0 1-594): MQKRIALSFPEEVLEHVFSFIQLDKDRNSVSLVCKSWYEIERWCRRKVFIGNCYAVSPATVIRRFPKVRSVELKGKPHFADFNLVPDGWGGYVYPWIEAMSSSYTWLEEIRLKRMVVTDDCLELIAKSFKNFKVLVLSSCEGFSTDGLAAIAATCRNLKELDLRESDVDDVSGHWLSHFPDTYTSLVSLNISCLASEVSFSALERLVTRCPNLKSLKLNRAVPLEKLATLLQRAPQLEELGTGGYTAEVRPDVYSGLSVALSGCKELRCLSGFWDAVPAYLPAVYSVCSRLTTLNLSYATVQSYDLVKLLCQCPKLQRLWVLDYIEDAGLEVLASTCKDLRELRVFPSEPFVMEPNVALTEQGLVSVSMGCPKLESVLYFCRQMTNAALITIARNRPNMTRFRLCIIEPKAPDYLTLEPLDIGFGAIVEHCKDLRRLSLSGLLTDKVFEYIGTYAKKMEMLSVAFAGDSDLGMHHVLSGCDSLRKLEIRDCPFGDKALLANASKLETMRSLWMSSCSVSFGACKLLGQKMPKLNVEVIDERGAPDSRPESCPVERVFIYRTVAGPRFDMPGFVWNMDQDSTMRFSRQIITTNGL
T1 sequence (Q38825 1-243 partner): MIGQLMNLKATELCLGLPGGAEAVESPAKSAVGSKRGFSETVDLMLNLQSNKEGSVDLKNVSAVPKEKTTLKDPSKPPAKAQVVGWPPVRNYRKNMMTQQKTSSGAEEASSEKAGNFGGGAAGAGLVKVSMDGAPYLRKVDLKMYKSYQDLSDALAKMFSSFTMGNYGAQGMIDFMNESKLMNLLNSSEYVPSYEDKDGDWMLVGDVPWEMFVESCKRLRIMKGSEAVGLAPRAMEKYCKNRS

[4] = target: T2, IAA7 (Arabidopsis thaliana, UniProt Q38825); assay: BLI
T2 chain: T1 sequence (Q38825 1-243 partner)

Molecule: IAA7 (from UniProt Q38825)
Kd [1]: 30 nM
Kd [2]: 20000 nM

Molecule: O=C(O)Cc1c[nH]c2ccccc12 [IAA, indole-3-acetic acid]
synthetic yeast system, TIR1-dependent degradation of YFP-IAA7 and YFP-IAA17 by [3]: signals from YFP-IAA7 and YFP-IAA17 decreased rapidly upon addition of IAA

Kd [4]: 200 nM
B1: TIR1 (protein)
chain: T1 sequence (Q570C0 1-594)
modifications: oxIAA (saturating)
